Consider 9 molecules from patent US20260250418A1 (BIOCYTOGEN PHARMACEUTICALS BEIJING, published 2026).

The labels stand for the following.
T1: monkey (Macaca fascicularis) HER3 on CHO-fasHER3 cells (monkey (Macaca fascicularis), UniProt P21860 20-643 (human entry))
T1 construct: CHO-S cells transfected with fasHER3
T1 chain: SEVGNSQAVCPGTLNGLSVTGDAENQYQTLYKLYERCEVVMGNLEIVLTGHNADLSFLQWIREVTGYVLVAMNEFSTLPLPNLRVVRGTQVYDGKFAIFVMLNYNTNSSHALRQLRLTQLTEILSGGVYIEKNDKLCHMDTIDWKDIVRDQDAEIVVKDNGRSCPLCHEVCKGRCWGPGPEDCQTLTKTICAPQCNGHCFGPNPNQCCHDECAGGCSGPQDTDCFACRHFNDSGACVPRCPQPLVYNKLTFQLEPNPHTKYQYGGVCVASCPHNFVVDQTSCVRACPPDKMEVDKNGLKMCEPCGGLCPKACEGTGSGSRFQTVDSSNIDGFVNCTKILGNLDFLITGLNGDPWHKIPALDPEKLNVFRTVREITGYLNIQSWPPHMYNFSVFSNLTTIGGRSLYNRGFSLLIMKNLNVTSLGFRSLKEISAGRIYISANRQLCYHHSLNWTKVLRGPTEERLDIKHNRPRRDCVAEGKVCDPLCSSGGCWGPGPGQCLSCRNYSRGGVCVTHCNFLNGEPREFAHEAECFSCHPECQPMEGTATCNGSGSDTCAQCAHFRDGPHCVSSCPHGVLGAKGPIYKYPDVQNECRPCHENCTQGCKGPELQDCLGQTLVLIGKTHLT

B1: anti-HER3/MET bispecific antibody 3G6-2F11 (bispecific antibody, V domains shown)
VH 1: QVQLVQSGPVLVKPTETLTLTCTVSGFSLSNIRMGVSWIRQPPGKALEWLAHIFSNDDKSYSTSLKSRLTISKDTSKSQVVLTMTNVDPVDTATYYCTRMRYSGGPFDYWGQGTLVTVSS
VH 2: EVQLVESGPGLVKPSETLSLTCTVSGGSISSNYWSWIRQPPGKGLEWIGYIYHSGSTNYNPSLKSRVTISVDTSKNQFSLKLSSVTAADTAVYFCARGPVSIFGVVKYIDLWGRGTLVTVSS
VL: not shown
B2: anti-HER3/MET bispecific antibody 3G6-8E2 (bispecific antibody, V domains shown)
VH 1: B1 VH 1
VH 2: QVQLVQSGPALVKPTQTLTLTCTFSGFSLYTSGVAVAWIRQPPGKALEWLALIYWDDDKWYTPSLKTRLSITKDTSKNQVVLTMTNMDPVDTATYYCAHRGSFNWNYGYFDYWGQGTLVTVSS
VL: not shown
B3: anti-HER3/MET bispecific antibody 3E1-8D9 (bispecific antibody, V domains shown)
VH 1: B1 VH 1 with Q1E, V12A, T63P, S67N, N86T, V87M, V90M, R101K
VH 2: QVQLQESGPGLVKPSETLSLTCTVSGGSISGHYWSWIRQSPGKGLEWIGYITYSGSTNYNPSLKSRVTISVDTSKNQFSLKLSSVTAADTAVYYCGTIAVAGRVYYYGVDVWGRGTTVTVSS
VL: not shown
B4: anti-HER3/MET bispecific antibody 3E1-2F11 (bispecific antibody, V domains shown)
VH 1: B1 VH 1 with Q1E, V12A, T63P, S67N, N86T, V87M, V90M, R101K
VH 2: B1 VH 2
VL: not shown
B5: anti-HER3/MET bispecific antibody 3E1-8E2 (bispecific antibody, V domains shown)
VH 1: B1 VH 1 with Q1E, V12A, T63P, S67N, N86T, V87M, V90M, R101K
VH 2: B2 VH 2
VL: not shown
B6: anti-HER3/MET bispecific antibody 1B2-2F11 (bispecific antibody, V domains shown)
VH 1: B1 VH 1 with G26T, I32A, T63P, S78T, V87M, T98S, T114S
VH 2: B1 VH 2
VL: not shown
B7: anti-HER3/MET bispecific antibody 1B2-8E2 (bispecific antibody, V domains shown)
VH 1: B1 VH 1 with G26T, I32A, T63P, S78T, V87M, T98S, T114S
VH 2: B2 VH 2
VL: not shown
B8: anti-HER3/MET bispecific antibody 1B2-8D9 (bispecific antibody, V domains shown)
VH 1: B1 VH 1 with G26T, I32A, T63P, S78T, V87M, T98S, T114S
VH 2: B3 VH 2
VL: not shown
B9: anti-HER3/MET bispecific antibody 1C5-8E2 (bispecific antibody, V domains shown)
VH 1: QVQLVESGGGVVQPGKSLRLSCAASGFTFSRSGMHWVRQAPGKGLEWVALISFDGSNKYYADSVKGRFTISRDNSKNTLNLQMNSLRAEDTAVYYCAKGGFGVVIYDAFDIWGHGTMVTVSS
VH 2: B2 VH 2
VL: not shown

Changes are numbered by the printed parent chain.

T6 sequence (A0M8R7 25-1381 S170N/I621T limits assumed): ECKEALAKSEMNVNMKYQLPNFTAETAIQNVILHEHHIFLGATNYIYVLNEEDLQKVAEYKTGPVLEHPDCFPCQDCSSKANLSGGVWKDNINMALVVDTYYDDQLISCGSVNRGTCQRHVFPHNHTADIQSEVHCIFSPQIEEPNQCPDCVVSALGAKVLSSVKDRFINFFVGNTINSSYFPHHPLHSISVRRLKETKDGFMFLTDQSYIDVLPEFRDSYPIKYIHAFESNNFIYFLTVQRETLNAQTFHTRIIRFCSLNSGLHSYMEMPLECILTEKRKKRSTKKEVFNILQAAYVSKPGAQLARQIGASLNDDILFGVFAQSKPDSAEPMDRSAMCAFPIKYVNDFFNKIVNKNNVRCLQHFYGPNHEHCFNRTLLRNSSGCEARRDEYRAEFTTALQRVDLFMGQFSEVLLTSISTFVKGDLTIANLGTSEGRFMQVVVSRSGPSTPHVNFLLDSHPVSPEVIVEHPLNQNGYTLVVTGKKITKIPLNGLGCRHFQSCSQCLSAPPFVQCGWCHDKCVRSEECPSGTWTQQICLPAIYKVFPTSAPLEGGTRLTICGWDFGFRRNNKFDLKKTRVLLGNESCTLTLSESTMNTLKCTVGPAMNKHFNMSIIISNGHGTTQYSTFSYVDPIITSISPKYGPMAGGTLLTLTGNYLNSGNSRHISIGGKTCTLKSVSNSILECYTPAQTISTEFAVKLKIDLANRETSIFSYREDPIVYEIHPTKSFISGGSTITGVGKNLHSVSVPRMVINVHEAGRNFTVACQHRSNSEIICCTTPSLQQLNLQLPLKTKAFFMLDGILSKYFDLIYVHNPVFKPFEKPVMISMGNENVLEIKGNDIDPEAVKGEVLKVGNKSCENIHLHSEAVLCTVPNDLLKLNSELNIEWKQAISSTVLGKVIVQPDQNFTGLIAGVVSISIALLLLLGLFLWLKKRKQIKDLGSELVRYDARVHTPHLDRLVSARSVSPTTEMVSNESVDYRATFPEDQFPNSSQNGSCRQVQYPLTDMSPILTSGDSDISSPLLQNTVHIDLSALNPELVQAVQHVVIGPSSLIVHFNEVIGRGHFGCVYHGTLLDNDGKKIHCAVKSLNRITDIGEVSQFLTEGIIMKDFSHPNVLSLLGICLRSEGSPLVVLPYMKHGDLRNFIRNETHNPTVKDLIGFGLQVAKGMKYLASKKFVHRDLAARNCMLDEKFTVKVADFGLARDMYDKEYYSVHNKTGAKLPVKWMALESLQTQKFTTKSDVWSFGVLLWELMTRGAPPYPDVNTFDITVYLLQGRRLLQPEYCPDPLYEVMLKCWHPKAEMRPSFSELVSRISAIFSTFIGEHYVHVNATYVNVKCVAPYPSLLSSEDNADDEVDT
T4 sequence (P08581 25-932 limits assumed): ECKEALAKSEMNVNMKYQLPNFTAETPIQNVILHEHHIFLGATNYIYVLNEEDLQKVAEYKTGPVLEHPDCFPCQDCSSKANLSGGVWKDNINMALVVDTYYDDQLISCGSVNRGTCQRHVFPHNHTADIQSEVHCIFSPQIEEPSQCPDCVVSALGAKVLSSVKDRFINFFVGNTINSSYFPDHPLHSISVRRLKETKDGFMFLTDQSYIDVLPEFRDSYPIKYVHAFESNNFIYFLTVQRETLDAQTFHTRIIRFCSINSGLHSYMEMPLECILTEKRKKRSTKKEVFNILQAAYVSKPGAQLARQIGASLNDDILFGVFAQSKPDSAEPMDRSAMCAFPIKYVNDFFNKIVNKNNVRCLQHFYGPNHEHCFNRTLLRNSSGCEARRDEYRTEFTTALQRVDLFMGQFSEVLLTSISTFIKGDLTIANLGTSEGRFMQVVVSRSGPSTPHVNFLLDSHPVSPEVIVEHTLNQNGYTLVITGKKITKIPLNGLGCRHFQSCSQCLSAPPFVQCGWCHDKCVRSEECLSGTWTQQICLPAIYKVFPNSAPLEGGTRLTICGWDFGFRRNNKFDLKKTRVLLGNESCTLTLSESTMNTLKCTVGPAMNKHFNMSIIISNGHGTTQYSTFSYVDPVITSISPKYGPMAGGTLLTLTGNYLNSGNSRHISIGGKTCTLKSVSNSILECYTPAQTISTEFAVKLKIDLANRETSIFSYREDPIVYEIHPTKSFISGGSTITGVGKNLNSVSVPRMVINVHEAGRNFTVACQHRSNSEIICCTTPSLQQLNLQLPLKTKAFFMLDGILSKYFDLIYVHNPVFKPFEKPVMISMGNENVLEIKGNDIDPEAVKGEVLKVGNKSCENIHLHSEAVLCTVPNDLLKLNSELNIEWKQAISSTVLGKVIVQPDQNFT
T7 sequence (P08581 25-1390 limits assumed): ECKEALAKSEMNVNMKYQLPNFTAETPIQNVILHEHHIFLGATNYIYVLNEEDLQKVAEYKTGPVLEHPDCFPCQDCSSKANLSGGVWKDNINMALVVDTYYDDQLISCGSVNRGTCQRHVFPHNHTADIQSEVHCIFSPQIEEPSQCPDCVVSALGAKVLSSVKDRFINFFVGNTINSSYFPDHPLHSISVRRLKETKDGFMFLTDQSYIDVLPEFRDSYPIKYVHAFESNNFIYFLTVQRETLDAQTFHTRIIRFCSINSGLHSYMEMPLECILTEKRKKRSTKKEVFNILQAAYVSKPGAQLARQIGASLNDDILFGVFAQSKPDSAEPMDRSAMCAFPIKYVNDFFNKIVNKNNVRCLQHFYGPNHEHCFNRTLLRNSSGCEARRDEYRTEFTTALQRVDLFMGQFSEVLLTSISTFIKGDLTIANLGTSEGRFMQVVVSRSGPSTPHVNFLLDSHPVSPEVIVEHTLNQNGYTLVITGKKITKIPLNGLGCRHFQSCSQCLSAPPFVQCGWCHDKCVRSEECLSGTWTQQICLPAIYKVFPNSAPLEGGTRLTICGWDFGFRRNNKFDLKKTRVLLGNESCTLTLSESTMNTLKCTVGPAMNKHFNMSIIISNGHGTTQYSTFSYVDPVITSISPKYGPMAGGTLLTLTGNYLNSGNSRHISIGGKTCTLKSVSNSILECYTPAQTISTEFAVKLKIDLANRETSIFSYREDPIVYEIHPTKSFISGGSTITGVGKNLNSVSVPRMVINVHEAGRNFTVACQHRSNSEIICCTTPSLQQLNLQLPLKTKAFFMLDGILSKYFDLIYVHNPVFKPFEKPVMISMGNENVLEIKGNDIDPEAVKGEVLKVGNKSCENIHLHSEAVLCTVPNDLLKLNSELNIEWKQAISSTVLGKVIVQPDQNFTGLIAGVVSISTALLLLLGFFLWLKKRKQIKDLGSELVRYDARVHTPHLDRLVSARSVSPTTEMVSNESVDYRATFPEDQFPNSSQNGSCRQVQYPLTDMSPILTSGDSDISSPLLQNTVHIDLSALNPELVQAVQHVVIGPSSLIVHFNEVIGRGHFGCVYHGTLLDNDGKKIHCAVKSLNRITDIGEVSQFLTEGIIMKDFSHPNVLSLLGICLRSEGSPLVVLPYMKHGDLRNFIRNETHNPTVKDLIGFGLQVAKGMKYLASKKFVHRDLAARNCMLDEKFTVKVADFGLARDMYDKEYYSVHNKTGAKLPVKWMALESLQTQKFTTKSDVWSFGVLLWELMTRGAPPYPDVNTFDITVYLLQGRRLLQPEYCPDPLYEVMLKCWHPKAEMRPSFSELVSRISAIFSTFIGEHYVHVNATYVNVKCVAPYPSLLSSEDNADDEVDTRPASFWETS

The first test concerns the target T2, His-tagged monkey HER3 protein (fasHER3, Sino Biological, Inc., Cat #: 90043-K08H) (monkey).
T2 construct: Bought protein
Kind of test: SPR, Ab captured on Protein A, antigen 400 nM. The procedure:
(§1) Purified antibodies were captured on the Protein A chip (Series S Sensor Chip Protein A) for the detection. 2 μg/mL antibodies were loaded at 10 μL/min to bind to hHER3, fasHER3, hMET or fasMET (400 and 0 nM). The flow rate was 30 μL/min, the binding and dissociation time were set to 180 s and 400 s, respectively. The chip was regenerated after the last injection of each titration with a glycine solution ([…]) at 30 μL/min for 30 seconds.
The term Kd denotes the equilibrium constant for the complex coming apart. For orientation: koff means a measure of how fast the partners let go of each other. As a reminder, the kon is the rate constant with which the complex forms. For the molecule B1, the Kd was 90.2 nM, the koff was determined as 0.0103 s⁻¹ and the kon is 114000 M⁻¹ s⁻¹.
As for B2, the Kd was found to be 67.2 nM.
For B3, the affinity, expressed as Kd, was 33.1 nM; the koff worked out at 0.00322 s⁻¹; the kon came out at 97300 M⁻¹ s⁻¹.
Take B4: binding was put at a Kd of 33.7 nM, the koff was 0.00325 s⁻¹ and the kon worked out at 96400 M⁻¹ s⁻¹.
In turn, B5 showed a Kd of 29 nM, a koff of 0.00329 s⁻¹ and an on-rate (kon) of 113000 M⁻¹ s⁻¹.
Consider B6, for which binding was characterised by a dissociation constant (Kd) of 38.9 nM, the koff is 0.00255 s⁻¹ and the kon came to 65600 M⁻¹ s⁻¹.
On to B7, for which the Kd worked out at 31.5 nM, the koff turned out to be 0.0025 s⁻¹ and the kon came to 79300 M⁻¹ s⁻¹.
B8: the Kd was found to be 38.9 nM, the koff is 0.00261 s⁻¹ and the on-rate constant (kon) was found to be 67100 M⁻¹ s⁻¹.
Turning to B9, the Kd was determined as 92.5 nM, the koff was determined as 0.000844 s⁻¹ and the kon is 9120 M⁻¹ s⁻¹.

In a further test the target is T3, His-tagged human HER3 protein (hHER3, ACRO Biosystems Inc., Cat #: ER3-H5223) (human, UniProt P21860 20-643).
T3 construct: Bought protein; also called hHER3-His; not shown: His tag
Kind of test: SPR, Ab captured on Protein A, antigen 400 nM. The procedure: as §1
The molecule B1 showed a Kd of 47.4 nM, a koff of 0.0106 s⁻¹ and a kon of 224000 M⁻¹ s⁻¹.
In turn, B2 returned a Kd of 38.9 nM and a koff of 0.0101 s⁻¹.
The molecule B3 returned a Kd of 15 nM, a koff of 0.00341 s⁻¹ and a kon of 227000 M⁻¹ s⁻¹.
The matching figures for B4: 14.8 nM, 0.00342 s⁻¹ and 231000 M⁻¹ s⁻¹.
Take B5: the Kd was found to be 13.2 nM, the koff came to 0.0035 s⁻¹ and the kon is 266000 M⁻¹ s⁻¹.
B6 returned a Kd of 16.1 nM, a koff of 0.00253 s⁻¹ and a kon of 157000 M⁻¹ s⁻¹.
With B7, the Kd was 13.8 nM, the koff worked out at 0.00252 s⁻¹ and the kon came out at 183000 M⁻¹ s⁻¹.
On to B8, for which the Kd was 16.7 nM, the koff turned out to be 0.00262 s⁻¹ and the kon came to 157000 M⁻¹ s⁻¹.
The matching figures for B9: 32.7 nM, 0.000777 s⁻¹ and 23700 M⁻¹ s⁻¹.

A further test has as its target T4, His-tagged human MET (hMET, Sino Biological, Inc., Cat #: 10692-H08H) (human, UniProt P08581 25-932).
T4 construct: Bought protein; not shown: His tag
Kind of test: SPR, Ab captured on Protein A, antigen 400 nM. The procedure: as §1
Molecule B1 yielded a Kd of 50.7 nM, a koff of 0.00256 s⁻¹ and a kon of 50500 M⁻¹ s⁻¹.
B2 came in with a Kd of 14.8 nM and a koff of 0.00113 s⁻¹.
Regarding B3, the affinity, expressed as Kd, was 21.8 nM; the koff was 0.00051 s⁻¹; the kon amounted to 23400 M⁻¹ s⁻¹.
B4 returned a Kd of 43.1 nM, a koff of 0.00285 s⁻¹ and a kon of 66100 M⁻¹ s⁻¹.
Molecule B5 showed a Kd of 16.9 nM, a koff of 0.0012 s⁻¹ and a kon of 71100 M⁻¹ s⁻¹.
Regarding B6, the Kd is 40.4 nM, the koff was 0.00255 s⁻¹ and the kon amounted to 63200 M⁻¹ s⁻¹.
In turn, B7 yielded a Kd of 14 nM, a koff of 0.000998 s⁻¹ and a kon of 71400 M⁻¹ s⁻¹.
Turning to B8, the affinity, expressed as Kd, was 35.7 nM; the koff came out at 0.000973 s⁻¹; the kon turned out to be 27200 M⁻¹ s⁻¹.
The matching figures for B9: 18 nM, 0.00122 s⁻¹ and 68000 M⁻¹ s⁻¹.

For a further test, the target named is T5, human HER3 on CHO-hHER3 cells (human, UniProt P21860 20-643).
T5 construct: CHO-S cells transfected with hHER3
In words: flow cytometry, transfected CHO cells. As for the experimental part:
(§2) Specifically, CHO-hHER3 cells, CHO-fasHER3 cells, NIH3T3-hMET cells or NIH3T3-fasMET cells were transferred to a 96-well plate at a density of 5×10⁴ cells/well respectively. The antibodies were added to the 96-well plate, and incubated at 4° C. for 30 min.
On the technique in general: In flow cytometry, cells or beads pass a laser one at a time.
Take B1: the “Positive Cells” value turned out to be 47.3%.
Regarding B2, the “Positive Cells” value was 55.2%.
Same read-out and setting: then B3, with 59%.
In the case of B4, the “Positive Cells” value was 56.4%.
As for B5, the “Positive Cells” value was 58.4%.
B6: the “Positive Cells” value is 51.4%.
On to B7, for which the “Positive Cells” value is 56.3%.
Take B8: the “Positive Cells” value is 54%.
For the molecule B9, the “Positive Cells” value came to 56.9%.

Another test addresses T1, monkey (Macaca fascicularis) HER3 on …. Kind of test: flow cytometry, transfected CHO cells. As for the experimental part:
as §2
In the case of B1, the “Positive Cells” value stood at 56%.
Regarding B2, the “Positive Cells” value was found to be 58.4%.
For B3, the “Positive Cells” value was found to be 58.6%.
As for B4, the “Positive Cells” value stood at 50.3%.
In the case of B5, the “Positive Cells” value amounted to 63.9%.
With B6, the “Positive Cells” value was found to be 56.3%.
With B7, the “Positive Cells” value was found to be 61.4%.
On the same count and under the same terms, next, B8: 55.5%.
In the case of B9, the “Positive Cells” value was 55.1%.

A further test addresses T6, monkey MET on NIH3T3-fasMET cells (monkey, UniProt A0M8R7 25-1381).
T6 construct: NIH3T3 cells transfected with a plasmid expressing fasMET
Kind of test: flow cytometry, transfected NIH3T3 cells. The procedure:
as §2
Consider B1, for which the “Positive Cells” value is 72.9%.
B2: the “Positive Cells” value amounted to 51.6%.
In the case of B3, the “Positive Cells” value is 70.2%.
For the molecule B4, the “Positive Cells” value amounted to 87.3%.
As for B5, the “Positive Cells” value worked out at 54.8%.
Take B6: the “Positive Cells” value worked out at 66.4%.
In the case of B7, the “Positive Cells” value was found to be 54.3%.
Same read-out and setting: next, B8: 64.9%.
For the molecule B9, the “Positive Cells” value stood at 55.1%.

Another test concerns the target T7, human MET on NIH3T3-hMET cells (human, UniProt P08581 25-1390).
T7 construct: NIH3T3 cells transfected with a plasmid expressing hMET
In words: flow cytometry, transfected NIH3T3 cells. As for the experimental part:
as §2
In the case of B1, the “Positive Cells” value stood at 99.8%.
For the molecule B2, the “Positive Cells” value was determined as 99.6%.
On the same count and under the same terms, then B3, with 99.9%; and B4, with 99.8%; and B5, with 99.5%.
As to B6, the “Positive Cells” value turned out to be 99.8%.
In the case of B7, the “Positive Cells” value was 99.6%.
With B8, the “Positive Cells” value amounted to 99.8%.
As for B9, the “Positive Cells” value is 99.6%.
